Test results as given in PMC2268108 (The Journal of General Physiology, 2005).

Experiments:
SDS-PAGE of the tetramer = biological target: the molecule itself; experiment: SDS-PAGE of the tetramer
cross-linking = biological target: the molecule itself; experiment: cross-linking
[1] = biological target: the molecule itself; experiment: single-molecule fluorescence
[2] = biological target: the molecule itself; experiment: single-molecule fluorescence; remark: listed apart in the source

B1: KcsA T75C (natural protein)
chain: MPPMLSGLLARLVKLLLGRHGSALHWRAAGAATVLLVIVLLAGSYLAVLAERGAPGAQLITYPRALWWSVETATCVGYGDLYPVTLWGRLVAVVVMVAGITSFGLVTAALATWFVGREQERRGHFVRHSEKAAEEAYTRTTRALHERFDRLERMLDDNRR
Question: Does B1 bind (SDS-PAGE of the tetramer)?
Answer: binds

B2: KcsA Thr75 to Ala (natural protein)
chain: MPPMLSGLLARLVKLLLGRHGSALHWRAAGAATVLLVIVLLAGSYLAVLAERGAPGAQLITYPRALWWSVETATAVGYGDLYPVTLWGRLVAVVVMVAGITSFGLVTAALATWFVGREQERRGHFVRHSEKAAEEAYTRTTRALHERFDRLERMLDDNRR
Question: Does B2 bind (SDS-PAGE of the tetramer)?
Answer: binds

B3: KdpFABC complex from Escherichia coli (complex)
chain 1: MSAGVITGVLLVFLLLGYLVYALINAEAF
chain 2: MAAQGFLLIATFLLVLMVLARPLGSGLARLINDIPLPGTTGVERVLFRALGVSDREMNWKQYLCAILGLNMLGLAVLFFMLLGQHYLPLNPQQLPGLSWDLALNTAVSFVTNTNWQSYSGETTLSYFSQMAGLTVQNFLSAASGIAVIFALIRAFTRQSMSTLGNAWVDLLRITLWVLVPVALLIALFFIQQGALQNFLPYQAVNTVEGAQQLLPMGPVASQEAIKMLGTNGGGFFNANSSHPFENPTALTNFVQMLAIFLIPTALCFAFGEVMGDRRQGRMLLWAMSVIFVICVGVVMWAEVQGNPHLLALGTDSSINMEGKESRFGVLVSSLFAVVTTAASCGAVIAMHDSFTALGGMVPMWLMQIGEVVFGGVGSGLYGMMLFVLLAVFIAGLMIGRTPEYLGKKIDVREMKLTALAILVTPTLVLMGAALAMMTDAGRSAMLNPGPHGFSEVLYAVSSAANNNGSAFAGLSANSPFWNCLLAFCMFVGRFGVIIPVMAIAGSLVSKKSQAASSGTLPTHGPLFVGLLIGTVLLVGALTFIPALALGPVAEYLS
chain 3: MSRKQLALFEPTLVVQALKEAVKKLNPQAQWRNPVMFIVWIGSLLTTCISIAMASGAMPGNALFSAAISGWLWITVLFANFAEALAEGRSKAQANSLKGVKKTAFARKLREPKYGAAADKVPADQLRKGDIVLVEAGDIIPCDGEVIEGGASVDESAITGESAPVIRESGGDFASVTGGTRILSDWLVIECSVNPGETFLDRMIAMVEGAQRRKTPNEIALTILLIALTIVFLLATATLWPFSAWGGNAVSVTVLVALLVCLIPTTIGGLLSAIGVAGMSRMLGANVIATSGRAVEAAGDVDVLLLDKTGTITLGNRQASEFIPAQGVDEKTLADAAQLASLADETPEGRSIVILAKQRFNLRERDVQSLHATFVPFTAQSRMSGINIDNRMIRKGSVDAIRRHVEANGGHFPTDVDQKVDQVARQGATPLVVVEGSRVLGVIALKDIVKGGIKERFAQLRKMGIKTVMITGDNRLTAAAIAAEAGVDDFLAEATPEAKLALIRQYQAEGRLVAMTGDGTNDAPALAQADVAVAMNSGTQAAKEAGNMVDLDSNPTKLIEVVHIGKQMLMTRGSLTTFSIANDVAKYFAIIPAAFAATYPQLNALNIMCLHSPDSAILSAVIFNALIIVFLIPLALKGVSYKPLTASAMLRRNLWIYGLGGLLVPFIGIKVIDLLLTVCGLV
chain 4: MSGLRPALSTFIFLLLITGGVYPLLTTVLGQWWFPWQANGSLIREGDTVRGSALIGQNFTGNGYFHGRPSATAEMPYNPQASGGSNLAVSNPELDKLIAARVAALRAANPDASASVPVELVTASASGLDNNITPQAAAWQIPRVAKARNLSVEQLTQLIAKYSQQPLVKYIGQPVVNIVELNLALDKLDE
Question: Which “stoichiometry N” value (cross-linking) does the source give for B3 here?
Answer: 2

B4: pig gastric H/K-ATPase (αβ protomer), FITC-modified (complex)
chain 1: not shown
chain 2: MAALQEKKSCSQRMEEFQRYCWNPDTGQMLGRTLSRWVWISLYYVAFYVVMSGIFALCIYVLMRTIDPYTPDYQDQLKSPGVTLRPDVYGEKGLDISYNVSDSTTWAGLAHTLHRFLAGYSPAAQEGSINCTSEKYFFQESFLAPNHTKFSCKFTADMLQNCSGRPDPTFGFAEGKPCFIIKMNRIVKFLPGNSTAPRVDCAFLDQPRDGPPLQVEYFPANGTYSLHYFPYYGKKAQPHYSNPLVAAKLLNVPRNRDVVIVCKILAEHVSFDNPHDPYEGKVEFKLKIQK
Question: For B4, which “stoichiometry N” value [1] is on record?
Answer: 2

Question: And the “stoichiometry N” value [2]?
Answer: 4
